Measurements published in the supplement of paper PMC12764529.
± gives the half width of the 95% confidence interval.

Experiments:
[1] = folding stability dG unfold from trypsin proteolysis; higher = more stable
In short: (§1)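 Only designs with AlphaFold2 dimer inter-PAE above 15 were retained; each was a mini-protein under 80 residues with no cysteine, in a PA-tagged cDNA display construct. After digestion with trypsin and chymotrypsin and sequencing, K50 was inferred by Bayesian fitting of counts, and unfolding free energy was derived per protease or combined against a sequence-predicted unfolded-state K50 and a shared folded-state K50.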

[2] = folding stability dG unfold from chymotrypsin proteolysis; higher = more stable
In short: as §1

[3] = folding stability dG unfold (combined trypsin and chymotrypsin); higher = more stable
In short: as §1

SAGGMHLVIPFDSPEEALEAAKELKKEFEEKGYTVKVYYFPETGDIHVLVEMKTDGKTKYLNVTVPFPSAGG [r13_641_TrMRF]
folding stability dG unfold [1]: 0.83 ± 0.034 kcal/mol | folding stability dG unfold [2]: 2.05 ± 0.036 kcal/mol | folding stability dG unfold [3]: 1.73 ± 0.057 kcal/mol

SAGGKLTPEEIEELAKKLAEELRKEGKEVEIEVEIEVDGKLIKIKMKIDPKTKKIEIVKIEVYPKEDLSAGG [r13_37_TrROS_Hall]
folding stability dG unfold [1]: 3.9 ± 0.14 kcal/mol | folding stability dG unfold [2]: 2.93 ± 0.092 kcal/mol | folding stability dG unfold [3]: 3.58 ± 0.21 kcal/mol

SAGGSLSEIIEKAKELAKKKYPNKGVTVPVEIKYKDPVKKKWIKVKIEITFDKNGNIIKITIKEIKLESAGG [r13_770_JUSTAS]
folding stability dG unfold [1]: 3.48 ± 0.27 kcal/mol | folding stability dG unfold [2]: 4.04 ± 0.12 kcal/mol | folding stability dG unfold [3]: 3.91 ± 0.41 kcal/mol

SAGGSAPPPIKIKFKYPNGRPMELEFNPENGNYEIKQPDGEKEEVPMENIKEIRIPPGIKDVEIVPSAGGSA [r15_1043_TrROS]
folding stability dG unfold [1]: -0.579 ± 0.27 kcal/mol | folding stability dG unfold [2]: -0.0709 ± 0.41 kcal/mol | folding stability dG unfold [3]: < -1 kcal/mol

SAGGSAGGSWMYKKNPDGKLEPLPPIRPVPIKIPVPINGRWIPVPIWMTVADIDYIIKEFLKNSAGGSAGGS [r20_148_TrROS]
folding stability dG unfold [1]: 1.48 ± 0.042 kcal/mol | folding stability dG unfold [2]: 0.785 ± 0.15 kcal/mol | folding stability dG unfold [3]: 1.41 ± 0.15 kcal/mol

SAGGSAPFVPPGFVKSVEEFEVTFPDGSKYRVTLIEVDGGPLVLVEKPGVGEPKTLPFEKLLELLASAGGSA [r15_329_TrMRF]
folding stability dG unfold [1]: 1.88 ± 0.11 kcal/mol | folding stability dG unfold [2]: 1.36 ± 0.075 kcal/mol | folding stability dG unfold [3]: 1.73 ± 0.13 kcal/mol

SANDAMRKMMENMSPEDMMEMVRPPVPPPPVVTIRVPIEDLPKFLQWLSEEFGVEIEREDGYLYITVTASAG [r14_7_TrROS]
folding stability dG unfold [1]: 0.623 ± 0.084 kcal/mol | folding stability dG unfold [2]: 1.48 ± 0.034 kcal/mol | folding stability dG unfold [3]: 1.22 ± 0.095 kcal/mol

SAGGMIEKIKEAAKKLGLKVKIEEVKFDKKTKKVTIKITLENGKKIEITVEMSEEELLNAIKELIKKSAGGS [r16_153_TrROS_Hall]
folding stability dG unfold [1]: 2.52 ± 0.11 kcal/mol | folding stability dG unfold [2]: 3.62 ± 0.091 kcal/mol | folding stability dG unfold [3]: 3.34 ± 0.14 kcal/mol

SAGGSAGGSMKVVKILSIETKAEKDEEVLTIPVLDPANGKVITLTVSPEVAKTITTDDEIELLSAGGSAGGS [r12_382_JUSTAS]
folding stability dG unfold [1]: 0.177 ± 0.14 kcal/mol | folding stability dG unfold [2]: 0.517 ± 0.12 kcal/mol | folding stability dG unfold [3]: 0.47 ± 0.14 kcal/mol

SAGGSAGGSLKPFPIEDITVQPRRNPDGNRYYQVSIRIKGPGRPINIPFPMDNPKKFLEDIIKSAGGSAGGS [r20_238_TrROS]
folding stability dG unfold [1]: 0.519 ± 0.081 kcal/mol | folding stability dG unfold [2]: 0.143 ± 0.12 kcal/mol | folding stability dG unfold [3]: 0.285 ± 0.17 kcal/mol

SAGMTVKVKVEVKTKYFDKNGKLVKEEKKTVEVEVEVKIVIELKPEDLEKAKELAEKLGIEITEEELKSAGG [r19_315_TrROS_Hall]
folding stability dG unfold [1]: 1.26 ± 0.29 kcal/mol | folding stability dG unfold [2]: 1.86 ± 0.17 kcal/mol | folding stability dG unfold [3]: 1.74 ± 0.56 kcal/mol

SAGGSAGGMTTTEISTKKLPDGTWATTVTTTTITATNGVPVTTSTPTTIINPGDPSVAIAAALSSAGGSAGG [r6_129_JUSTAS]
folding stability dG unfold [1]: 0.209 ± 0.013 kcal/mol | folding stability dG unfold [2]: -1 ± 0.29 kcal/mol | folding stability dG unfold [3]: -0.173 ± 0.057 kcal/mol

SAGGSAAKIDPKNGTITIYNKKTGKKIKIKIKNLPPGAKVTIEIKNGKITIKVDGKTIEINIKEIKSAGGSA [r15_864_TrROS_Hall]
folding stability dG unfold [1]: 2.1 ± 0.26 kcal/mol | folding stability dG unfold [2]: 3.19 ± 0.19 kcal/mol | folding stability dG unfold [3]: 2.85 ± 0.29 kcal/mol

SLTAEEAAANPELAARLLALPPVPPFPVELLFVNPETRAVLPAKATVYQFPNTWLVLFPENGAALPVPGGSA [r9_548_TrMRF]
folding stability dG unfold [1]: 0.71 ± 0.14 kcal/mol | folding stability dG unfold [2]: 1.26 ± 0.074 kcal/mol | folding stability dG unfold [3]: 1.1 ± 0.099 kcal/mol

SAGGIVPLPNGHWVIMAQFEVDEGQTVDDAPEFAREIAKTFGIKPTQVQVDPEKGYVNVAIKIPPGALSAGG [r13_178_TrROS]
folding stability dG unfold [1]: 0.217 ± 0.11 kcal/mol | folding stability dG unfold [2]: 0.263 ± 0.35 kcal/mol | folding stability dG unfold [3]: 0.327 ± 0.25 kcal/mol

SAGGSAGGRFTVQFRVPGTLEEAREKAEEIAENLPPNFKDVEVDIEPHPKNGWIRVEVQIKMKKSAGGSAGG [r6_164_TrROS]
folding stability dG unfold [1]: 0.991 ± 0.16 kcal/mol | folding stability dG unfold [2]: 1.07 ± 0.16 kcal/mol | folding stability dG unfold [3]: 1.01 ± 0.31 kcal/mol

SAGGSAGGSAGGPLKEAVEAAVASGAPEAEYLLVTPEGELRVTVKVYPEEGKVEVEVSPLSAGGSAGGSAGG [r17_475_TrMRF]
folding stability dG unfold [1]: 0.903 ± 0.018 kcal/mol | folding stability dG unfold [2]: 0.0794 ± 0.063 kcal/mol | folding stability dG unfold [3]: 0.555 ± 0.037 kcal/mol

SAGGGPPSSMVKKTYTVTGTDPDALAAAVRAAIAAAHPDVEITEVTVSRDPSSDRYTVTVDVLSSVASAGGS [r8_120_JUSTAS]
folding stability dG unfold [1]: 2.22 ± 0.036 kcal/mol | folding stability dG unfold [2]: 2.638 ± 0.017 kcal/mol | folding stability dG unfold [3]: 2.51 ± 0.051 kcal/mol

SAGGSAMKKIKIEVEKKGDEYIVRIKIKNPDGKIEEIEIKLKDEEEAKKLAEELLKEGKIDEIELESAGGSA [r15_575_TrROS_Hall]
folding stability dG unfold [1]: 2.7 ± 0.18 kcal/mol | folding stability dG unfold [2]: 2.29 ± 0.077 kcal/mol | folding stability dG unfold [3]: 2.57 ± 0.18 kcal/mol

SAGGSAMVVTVPASSLTPESIRALARENPGPVELVFPEEGRRVTVEVRGDGVVRVEEHPLDPAELASAGGSA [r15_751_JUSTAS]
folding stability dG unfold [1]: -1.07 ± 0.19 kcal/mol | folding stability dG unfold [2]: -0.536 ± 0.1 kcal/mol | folding stability dG unfold [3]: -0.621 ± 0.083 kcal/mol

SAGGSAGGSAGEIEVTVTFTGDDGYVVEVKYTFEVPEPNNPIIKKVEVKVKKLKPNEPASSAGGSAGGSAGG [r11_517_TrMRF]
folding stability dG unfold [1]: 1.12 ± 0.075 kcal/mol | folding stability dG unfold [2]: 2.63 ± 0.063 kcal/mol | folding stability dG unfold [3]: 2.22 ± 0.23 kcal/mol

GEERTFSLWVKTKSPQEARQLQEKIKDILRGPGYEVKIDDVEVSPNGWMKVNITMRPGMPQDRLRDALRKIS [r1_485_TrROS]
folding stability dG unfold [1]: 3.93 ± 0.082 kcal/mol | folding stability dG unfold [2]: 5.24 ± 0.06 kcal/mol | folding stability dG unfold [3]: 4.99 ± 0.07 kcal/mol

SAGGSGMKLEKEIEVEVDPSGVGAEAVKEAVRAELEKEGYKVKVEIEVSEEEEKLYVKLHVEIYELSAGGSA [r2_172_JUSTAS]
folding stability dG unfold [1]: 0.999 ± 0.064 kcal/mol | folding stability dG unfold [2]: 2.01 ± 0.14 kcal/mol | folding stability dG unfold [3]: 1.57 ± 0.19 kcal/mol

SAGSATVTYDPDTNTVTVTLEGPDTTFTISFPNGEKLEVKATVKPLPDGSYKVLLEVYYPDGSKETFELSAG [r14_675_TrMRF]
folding stability dG unfold [1]: 4.13 ± 0.2 kcal/mol | folding stability dG unfold [2]: 5.16 ± 0.3 kcal/mol | folding stability dG unfold [3]: > 6 kcal/mol

SAGGMKIVEITEEVPPGAVVRITFEDGSKREIKIPNVAELKGKKITLELPGLKVVKIEVVPAKEGEEVSAGG [r13_587_TrROS_Hall]
folding stability dG unfold [1]: 2.3 ± 0.15 kcal/mol | folding stability dG unfold [2]: 1.69 ± 0.29 kcal/mol | folding stability dG unfold [3]: 2.05 ± 0.48 kcal/mol

SAGGSAGGMVVERKDMDPEEAVEDTKKRIKEETGWEVTEITVTEFPEEPRLVVTIKVKKPPEKSSAGGSAGG [r6_462_JUSTAS]
folding stability dG unfold [1]: -0.287 ± 0.11 kcal/mol | folding stability dG unfold [2]: 0.71 ± 0.016 kcal/mol | folding stability dG unfold [3]: 0.408 ± 0.098 kcal/mol

SAGGSAGGSASAEEIAAKIEALFPVKVTVVREEPTPLGRPEVVIEVDAVGVPEELLEEVLKSAGGSAGGSAG [r3_40_JUSTAS]
folding stability dG unfold [1]: 0.68 ± 0.04 kcal/mol | folding stability dG unfold [2]: 0.446 ± 0.033 kcal/mol | folding stability dG unfold [3]: 0.559 ± 0.064 kcal/mol

SAGGSAGGSAGGIYPGPGNLLYFTGEDDYVKVIKITPPDNTIKIDIEIVPKGEATKIPYSAGGSAGGSAGGS [r10_257_TrMRF]
folding stability dG unfold [1]: 0.161 ± 0.059 kcal/mol | folding stability dG unfold [2]: -0.331 ± 0.28 kcal/mol | folding stability dG unfold [3]: -0.00595 ± 0.097 kcal/mol

SANPGKPVTIEIPVEEIRQKLNEENPDKPLTPSELKDLAKELIQRQGFPFKDVEIKSVNPGNGWIKIKVSAG [r14_303_TrROS]
folding stability dG unfold [1]: 0.871 ± 0.095 kcal/mol | folding stability dG unfold [2]: -0.538 ± 0.43 kcal/mol | folding stability dG unfold [3]: 0.279 ± 0.5 kcal/mol

SAGGSAKVKYKKDKNGNTYPVVEEKKKIKLTVKIKIFDKNGKLVKEITFPANMTLEEIEKEIKKLLSAGGSA [r15_309_TrROS_Hall]
folding stability dG unfold [1]: 1.16 ± 0.11 kcal/mol | folding stability dG unfold [2]: 1.79 ± 0.11 kcal/mol | folding stability dG unfold [3]: 1.61 ± 0.18 kcal/mol
